How the values were obtained:
[1] = biological target: T1, recombinant human Notch3 extracellular domain (containing EGF like domains 1-11) Fc fusion protein (human, UniProt Q9UM47 40-467); assay: SPR (Biacore T100), antibody captured by goat anti-human IgG, rhNotch3-Fc injected, 25° C.
T1 construct: Bought from R&D Systems; also called rhNotch3-Fc; Notch3-Fc; not shown: Fc of the bought fusion protein
T1 sequence: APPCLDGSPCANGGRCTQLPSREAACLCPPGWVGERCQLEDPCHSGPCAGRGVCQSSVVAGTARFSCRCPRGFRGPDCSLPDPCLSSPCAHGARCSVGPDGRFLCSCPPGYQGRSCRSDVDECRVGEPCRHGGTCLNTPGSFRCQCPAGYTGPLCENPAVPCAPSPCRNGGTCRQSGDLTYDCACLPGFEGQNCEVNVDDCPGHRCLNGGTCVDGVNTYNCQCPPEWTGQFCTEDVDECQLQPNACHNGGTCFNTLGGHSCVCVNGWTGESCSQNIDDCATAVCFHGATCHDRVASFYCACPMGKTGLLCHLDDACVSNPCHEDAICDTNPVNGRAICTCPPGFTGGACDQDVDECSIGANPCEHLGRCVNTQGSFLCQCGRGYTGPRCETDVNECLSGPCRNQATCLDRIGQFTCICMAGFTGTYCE
Method: (§1) Goat anti-human IgG is immobilized on carboxymethylated dextran CM4 sensor chips (GE Healthcare) by amine coupling, according to a standard protocol. Analyses are performed at 25° C. and 37° C. using PBS containing 0.05% surfactant P20 as running buffer. The antibody is captured in individual flow cells at a flow rate of 10 μl/minute. Injection time is varied for each antibody to yield an R max between 30 and 60 resonance units (RU). 250 μg/mL human IgG Fc is injected to block non-specific binding of Fc (from the Notch3 fusion protein) to the capture antibody. Buffer or rhNotch3-Fc diluted in running buffer is injected sequentially over a reference surface (no antibody captured) and the active surface (antibody to be tested) for 240 seconds at 60 μL/minute. The dissociation phase is monitored for up to 1500 seconds. The surface is then regenerated with two 60-second injections of 10 mM Glycine-HCl, pH 2.25, at a flow rate of 30 μL/minute. The rhNotch3-Fc concentration range tested is 100 nM to 3.125 nM (2 fold dilution).
(§2) Kinetic parameters can be determined using the kinetic function of the BIAevaluation software (GE Healthcare) with double reference subtraction. Kinetic parameters for the antibody, kₐ (association rate constant), kd (dissociation rate constant) and KD (equilibrium dissociation constant) are determined.

[2] = biological target: T1, recombinant human Notch3 extracellular …; assay: SPR (Biacore T100), antibody captured by goat anti-human IgG, rhNotch3-Fc injected, 37° C.
Method: as §1, §2

[3] = biological target: T1, recombinant human Notch3 extracellular …; assay: SPR (Biacore), 28042 captured as ligand, rhNotch3-Fc injected as sample, 25 C, 1:1 binding fit; the same fit is printed under the Notch3 sensorgram as ka 2.720E+5
Method: (§3) Rabbit anti-mouse IgGs (GE Healthcare) are immobilized on carboxymethylated dextran CM4 sensor chips (GE Healthcare) by amine coupling, according to a standard protocol. Analyses are performed at 25° C. and 37° C. using PBS containing 0.05% surfactant P20 as running buffer. The antibody is captured in individual flow cells at a flow rate of 10 μL/minute. Injection time is varied for each antibody to yield an R max between 30 and 60 RU. 250 μg/mL human IgG Fc is injected to block non-specific binding of Fc (from the Notch3 fusion protein) to the capture antibody. Buffer or rhNotch1-Fc (R&D Systems, Minneapolis, Minn.; Cat. No. 3647-TK-050), rhNotch2-Fc (R&D Cat. No. 3735-NT-050), and rhNotch3-Fc (R&D Cat. No. 1559-NT-050), diluted in running buffer is injected sequentially over a reference surface (no antibody captured) and the active surface (antibody to be tested) for 240 seconds at 60 μL/minute. The dissociation phase is monitored for up to 1500 seconds. The surface is then regenerated with two 60-second injections of 10 mM Glycine-HCl, pH 2.25, at a flow rate of 30 μL/minute. The rhNotch3-Fc, rhNotch2-Fc, and rhNotch1-Fc concentration range tested are 100 nM to 3.125 nM (2 fold dilution).

[4] = biological target: T2, murine Notch3 on the cell surface (murine, UniProt Q61982 40-2318); assay: FACS on FlpIn CHO cells expressing full length murine Notch3, 5 ug/ml antibody, anti-human PE secondary antibody
T2 construct: whole, on cells; also called mNotch3; full length murine Notch3
Method: (§4) Full length Notch receptor cDNAs cloned into pcDNA5FRT were transfected into FlpIn™ CHO cells and selected with 600 μg/ml hygromycin (Sigma), according to the manufacturer's protocol. Cell surface expression of Notch receptors is confirmed by FACS analysis using anti-Notch1 PE, anti-Notch2 PE or anti-Notch3 PE control antibodies (Biolegend). […] FACS is performed on a BD FACSCanto II cell analyzer (BD Biosciences) and analyzed using FlowJo software.

[5] = biological target: T3, human Notch3 on the cell surface (human, UniProt Q9UM47 40-2321); assay: FACS at 4° C. on cells expressing human Notch3, one site binding fit; cell line not stated
T3 construct: whole, on cells; also called hNotch3; cell surface human Notch3
From the text: CHO N3 (Flp-In-CHO cells (Invitrogen) stably transfected with human Notch3), HCC2429 cells, and RL-952 cells expressing human Notch3 are washed once with PBS containing calcium chloride and magnesium chloride (Invitrogen) and harvested using cell dissociation buffer (Invitrogen). Cells are washed a second time with PBS and resuspended in FACS buffer (PBS with 0.5% BSA (Sigma-Aldrich)) for a final cell concentration of 250,000 cells per well into a 96-well v-bottom plate. Purified antibodies are diluted in FACS buffer over a concentration range of 100 nM to 0 nM. Cells are then incubated at 4° C. with 100 μL of antibody for one hour, washed with FACS buffer twice, and resuspended in 100 μL of goat-anti mouse PE-conjugated antibody (Jackson Immuno Research). Cells are incubated at 4° C. for 30 minutes in the dark, washed once with FACS buffer, and then analyzed using a Beckman Coulter Cytomics FC 500 instrument. The geometric mean of the florescent intensity then is calculated for each antibody concentration. These values then are entered into Prism software (GraphPad, La Jolla, Calif.) and used to generate a binding curve by plotting geometric mean versus antibody concentration.

[6] = biological target: T1, recombinant human Notch3 extracellular …; assay: SPR (Biacore), 28042 captured as ligand, rhNotch3-Fc injected as sample, 25 C, 1:1 binding fit
Method: as §3

[7] = biological target: T4, rhNotch1-Fc (human, UniProt P46531 19-1735); assay: SPR (Biacore), 28042 captured as ligand, rhNotch1-Fc as sample, 25 C; software 1:1 fit printed under a sensorgram that stays below about 1.5; the drawn table gives '-' for this pair
T4 construct: extracellular domain; Bought from R&D Systems; also called R&D Cat. No. 3647-TK-050; not shown: Fc of the bought fusion protein
Method: as §3

[8] = biological target: T5, cynoNotch3 monomer (cyno); assay: binding to cynoNotch3 monomer at 25° C., protocol similar to that for hNotch3 (method not named)
T5 construct: Only named as 'cynoNotch3 monomer'

[9] = biological target: T6, human Notch2 on the cell surface (human, UniProt Q04721 26-2471); assay: FACS on FlpIn CHO cells expressing full length human Notch2, anti-human PE secondary antibody
T6 construct: whole, on cells; also called cell surface human Notch2; full length human Notch2
Method: as §4

[10] = biological target: T7, human Notch1 on the cell surface (human, UniProt P46531 19-2555); assay: FACS on FlpIn CHO cells expressing full length human Notch1, anti-human PE secondary antibody
T7 construct: whole, on cells; also called cell surface human Notch1; full length human Notch1
Method: as §4

[11] = biological target: T3, human Notch3 on the cell surface; assay: cell-based or functional assay
[12] = biological target: T1, recombinant human Notch3 extracellular …; assay: SPR (Biacore), 28042 captured as ligand, rhNotch3-Fc injected as sample, 25 C, 1:1 binding fit; the same fit is printed under the Notch3 sensorgram as kd 2.580E-4
Method: as §3

T4 sequence (P46531 19-1735): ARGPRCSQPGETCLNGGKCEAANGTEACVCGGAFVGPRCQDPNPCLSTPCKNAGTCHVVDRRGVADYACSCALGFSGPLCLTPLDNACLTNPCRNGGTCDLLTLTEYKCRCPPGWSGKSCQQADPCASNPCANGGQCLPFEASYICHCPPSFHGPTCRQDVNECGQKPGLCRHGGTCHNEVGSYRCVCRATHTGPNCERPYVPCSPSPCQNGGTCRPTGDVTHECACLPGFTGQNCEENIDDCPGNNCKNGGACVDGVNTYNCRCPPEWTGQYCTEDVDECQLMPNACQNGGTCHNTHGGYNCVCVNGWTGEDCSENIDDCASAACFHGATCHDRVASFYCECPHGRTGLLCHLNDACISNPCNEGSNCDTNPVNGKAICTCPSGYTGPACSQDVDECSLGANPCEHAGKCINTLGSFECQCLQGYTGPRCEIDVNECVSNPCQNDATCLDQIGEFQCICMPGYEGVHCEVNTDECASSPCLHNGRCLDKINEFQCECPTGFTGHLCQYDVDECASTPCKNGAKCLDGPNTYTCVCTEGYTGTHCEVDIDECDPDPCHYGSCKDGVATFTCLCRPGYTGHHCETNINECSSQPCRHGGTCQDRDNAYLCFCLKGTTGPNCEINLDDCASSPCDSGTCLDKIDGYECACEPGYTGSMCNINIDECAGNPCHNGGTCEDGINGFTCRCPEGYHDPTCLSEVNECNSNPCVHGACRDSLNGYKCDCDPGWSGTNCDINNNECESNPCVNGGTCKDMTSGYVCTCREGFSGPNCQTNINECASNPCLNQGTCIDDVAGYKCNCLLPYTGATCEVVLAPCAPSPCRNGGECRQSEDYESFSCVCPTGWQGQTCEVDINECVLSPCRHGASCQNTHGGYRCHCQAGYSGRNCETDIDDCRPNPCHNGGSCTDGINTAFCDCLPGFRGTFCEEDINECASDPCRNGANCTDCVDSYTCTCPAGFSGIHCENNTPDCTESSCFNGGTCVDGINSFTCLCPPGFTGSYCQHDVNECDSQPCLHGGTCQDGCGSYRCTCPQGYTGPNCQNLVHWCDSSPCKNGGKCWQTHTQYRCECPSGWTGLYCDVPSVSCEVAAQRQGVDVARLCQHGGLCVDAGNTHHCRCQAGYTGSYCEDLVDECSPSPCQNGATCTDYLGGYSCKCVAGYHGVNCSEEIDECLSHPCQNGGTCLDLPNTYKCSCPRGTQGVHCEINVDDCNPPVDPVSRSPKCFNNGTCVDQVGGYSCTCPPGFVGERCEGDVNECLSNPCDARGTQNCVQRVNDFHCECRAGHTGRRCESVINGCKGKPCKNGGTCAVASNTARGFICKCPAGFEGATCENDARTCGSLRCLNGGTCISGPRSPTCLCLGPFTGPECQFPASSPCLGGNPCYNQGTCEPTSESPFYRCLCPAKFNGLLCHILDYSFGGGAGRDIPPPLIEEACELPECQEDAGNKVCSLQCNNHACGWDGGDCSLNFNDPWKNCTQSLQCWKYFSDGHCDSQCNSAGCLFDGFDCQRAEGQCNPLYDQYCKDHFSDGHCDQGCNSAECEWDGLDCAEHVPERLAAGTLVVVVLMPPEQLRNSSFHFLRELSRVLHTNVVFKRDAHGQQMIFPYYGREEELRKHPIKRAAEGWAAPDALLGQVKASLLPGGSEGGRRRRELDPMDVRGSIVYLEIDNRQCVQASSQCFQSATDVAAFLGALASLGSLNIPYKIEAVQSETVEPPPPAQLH
T2 sequence (Q61982 40-2318): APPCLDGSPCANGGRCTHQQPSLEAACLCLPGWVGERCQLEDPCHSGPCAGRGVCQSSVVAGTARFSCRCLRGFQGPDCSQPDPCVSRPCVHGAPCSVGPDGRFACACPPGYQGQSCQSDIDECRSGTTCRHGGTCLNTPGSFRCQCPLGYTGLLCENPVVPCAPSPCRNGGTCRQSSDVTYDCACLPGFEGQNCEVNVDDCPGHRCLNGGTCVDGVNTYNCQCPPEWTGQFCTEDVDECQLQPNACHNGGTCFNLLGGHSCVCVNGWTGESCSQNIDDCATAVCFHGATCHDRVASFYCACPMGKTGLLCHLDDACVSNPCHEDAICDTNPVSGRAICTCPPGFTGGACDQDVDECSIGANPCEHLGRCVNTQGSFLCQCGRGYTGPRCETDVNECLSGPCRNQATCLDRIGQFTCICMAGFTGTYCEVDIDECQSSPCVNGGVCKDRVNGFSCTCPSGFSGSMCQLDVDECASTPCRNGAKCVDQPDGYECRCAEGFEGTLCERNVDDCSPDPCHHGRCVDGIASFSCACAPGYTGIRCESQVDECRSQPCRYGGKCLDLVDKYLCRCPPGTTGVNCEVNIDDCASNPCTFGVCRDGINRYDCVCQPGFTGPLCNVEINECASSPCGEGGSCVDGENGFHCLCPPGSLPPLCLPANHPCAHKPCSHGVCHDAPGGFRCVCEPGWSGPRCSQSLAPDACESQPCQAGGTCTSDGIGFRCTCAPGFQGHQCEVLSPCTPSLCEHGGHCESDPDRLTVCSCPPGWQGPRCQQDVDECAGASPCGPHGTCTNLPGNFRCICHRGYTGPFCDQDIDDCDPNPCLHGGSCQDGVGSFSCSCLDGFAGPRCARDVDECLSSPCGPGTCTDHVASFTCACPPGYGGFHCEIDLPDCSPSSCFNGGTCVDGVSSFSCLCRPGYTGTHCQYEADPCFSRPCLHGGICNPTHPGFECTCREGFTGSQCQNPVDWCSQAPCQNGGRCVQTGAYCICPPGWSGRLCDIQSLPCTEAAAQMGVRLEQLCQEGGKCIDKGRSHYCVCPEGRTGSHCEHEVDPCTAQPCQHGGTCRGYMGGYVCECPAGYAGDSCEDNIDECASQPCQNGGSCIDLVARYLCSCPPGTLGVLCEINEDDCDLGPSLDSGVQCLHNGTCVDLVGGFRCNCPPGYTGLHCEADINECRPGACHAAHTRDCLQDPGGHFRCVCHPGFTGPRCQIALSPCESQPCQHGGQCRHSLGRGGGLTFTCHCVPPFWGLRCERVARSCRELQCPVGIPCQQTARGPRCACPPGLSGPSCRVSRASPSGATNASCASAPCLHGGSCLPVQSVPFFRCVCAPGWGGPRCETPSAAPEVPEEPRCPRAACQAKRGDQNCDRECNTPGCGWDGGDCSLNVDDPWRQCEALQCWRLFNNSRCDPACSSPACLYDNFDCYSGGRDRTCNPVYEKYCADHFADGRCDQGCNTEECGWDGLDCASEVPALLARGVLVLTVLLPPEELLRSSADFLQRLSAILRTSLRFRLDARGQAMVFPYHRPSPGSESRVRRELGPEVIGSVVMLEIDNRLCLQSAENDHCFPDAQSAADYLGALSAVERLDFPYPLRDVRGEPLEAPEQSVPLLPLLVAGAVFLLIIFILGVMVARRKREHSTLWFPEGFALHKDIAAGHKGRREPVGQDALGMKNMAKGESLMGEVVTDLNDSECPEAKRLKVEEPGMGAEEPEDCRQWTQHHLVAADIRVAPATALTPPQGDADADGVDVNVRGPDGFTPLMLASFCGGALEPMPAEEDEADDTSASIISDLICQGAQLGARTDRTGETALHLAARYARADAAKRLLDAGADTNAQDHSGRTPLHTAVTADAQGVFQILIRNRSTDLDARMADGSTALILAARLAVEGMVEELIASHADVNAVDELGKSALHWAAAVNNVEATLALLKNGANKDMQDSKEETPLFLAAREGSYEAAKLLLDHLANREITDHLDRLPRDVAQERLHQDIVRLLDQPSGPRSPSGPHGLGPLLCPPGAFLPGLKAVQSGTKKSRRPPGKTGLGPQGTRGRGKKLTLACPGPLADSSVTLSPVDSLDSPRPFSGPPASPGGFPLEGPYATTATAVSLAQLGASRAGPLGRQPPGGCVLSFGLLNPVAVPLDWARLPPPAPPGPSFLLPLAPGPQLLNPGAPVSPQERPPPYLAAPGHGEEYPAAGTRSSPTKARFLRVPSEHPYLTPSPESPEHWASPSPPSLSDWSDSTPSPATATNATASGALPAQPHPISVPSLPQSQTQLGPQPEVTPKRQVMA

B1: 28042 antibody (antibody, human IgG1, kappa, V domains shown)
VH: EVQLLESGGGLVQPGGSLRLSCAASGFTFSDYMMSWVRQAPGKGLEWVSWIRSSGGTTLYADSVKGRFTISRDNSKNTLYLQMNSLRAEDTATYYCARVGGGTTGYAFDIWGQGTMVTVSS
VL: DIQMTQSPSSLSASVGDRVTITCRASQSISNYLNWYQQKPGKAPKLLIYGASSLQSGVPSRVSGTGSGTDFTLTISSLQPEDFATYYCQQSYSPSFTFGPGTKVDFER
**Q.** How did the Kd [1] turn out when B1 was run?
**A.** 2.55 nM

**Q.** And the koff [1]?
**A.** 0.000299 s⁻¹

**Q.** And the kon [1]?
**A.** 177000 M⁻¹ s⁻¹

**Q.** What about the Kd [2] of the same binder?
**A.** 4.18 nM

**Q.** And the koff [2]?
**A.** 0.000396 s⁻¹

**Q.** And the kon [2]?
**A.** 94700 M⁻¹ s⁻¹

**Q.** And the kon [3]?
**A.** 272000 M⁻¹ s⁻¹

**Q.** Does B1 bind [4]?
**A.** binds

**Q.** What about the Kd [5] of the same binder?
**A.** 2.72 nM

**Q.** And the Kd [6]?
**A.** 0.948 nM

**Q.** And the koff [7]?
**A.** 0.000313 s⁻¹

**Q.** And the kon [7]?
**A.** 104000 M⁻¹ s⁻¹

**Q.** And the Kd [8]?
**A.** 806 nM

**Q.** Does B1 bind [9]?
**A.** no binding

**Q.** Does B1 bind [10]?
**A.** no binding

**Q.** What about the “IC50; % inhibition of hJag2-mFc-stimulated RBP-Jk luciferase reporter activity in MDA-MB-468 cells with endogenous human Notch3” value [11] of the same binder?
**A.** 0.53 ug/ml (unit taken from the x axis 'log (ug/ml)'; the table prints none)

**Q.** And the “LogIC50; same reporter assay” value [11]?
**A.** -0.276 log (ug/ml)

**Q.** And the koff [12]?
**A.** 0.000258 s⁻¹
